Assays:
[1] = biological target: T1, SF3B1 K700E peptide on HLA-B*40:02 (human); assay: killing
T1 peptide: QEVRTISAL
Description: (§1) LCL were pulsed with QEVRTISAL (SEQ ID NO: 1) peptide at 1000 ng/ml prior to co-culture (>5 biological replicates per HLA). […] The tested peptides include […] (SEQ ID NO: 50), […] (SEQ ID NO: 64), and […] (SEQ ID NO: 65). QEVRTISAL (SEQ ID NO: 1) peptide and the wild-type equivalent QKVRTISAL (SEQ ID NO: 2) were included as controls (3 technical replicate experiments). […] For all experiments, mean and standard error of the mean (SEM) are shown.
(§2) Cytotoxicity was measured in short-term (4-hour) assays using 51Cr-labeled target cells. Briefly, target cells were labeled with ⁵¹Cr overnight (cell lines) or for 6 hours (primary leukemia) at 37° C. and 5% CO₂. Effector cells were added to labeled target cells and incubated for 4 hours. After co-incubation, supernatant was harvested for γ-counting. Specific lysis was calculated using a standard formula. Targets used included autologous LCL with and without peptides in varying concentrations. All targets were washed to remove excess 51Cr and residual interferon-γ or peptide before co-culture initiation.

[2] = biological target: T2, SF3B1 K700E epitope with alanine at position 7 peptide on HLA-B*40:01 (human); assay: killing
T2 peptide: QEVRTIAAL
Description: as §1, §2

[3] = biological target: T3, SF3B1 K700E epitope with valine at position 8 peptide on HLA-B*40:01 (human); assay: killing
T3 peptide: QEVRTISVL
Description: as §1, §2

[4] = biological target: T4, SF3B1 K700E epitope with glycine at position 8 peptide on HLA-B*40:01 (human); assay: killing
T4 peptide: QEVRTISGL
Description: as §1, §2

[5] = biological target: T5, spermatogenesis-associated protein 1 (SPATA1) peptide on HLA-B*40:01 (human); assay: killing
T5 peptide: VEDRTIRQL
Description: as §1, §2

[6] = biological target: T6, SF3B1 K700E epitope with alanine at position 3 peptide on HLA-B*40:01 (human); assay: killing
T6 peptide: QEARTISAL
Description: as §1, §2

[7] = biological target: T7, SF3B1 K700E epitope with alanine at position 9 peptide on HLA-B*40:01 (human); assay: killing
T7 peptide: QEVRTISAA
Description: as §1, §2

[8] = biological target: T8, mitochondrial trifunctional enzyme subunit alpha (HADHA) peptide on HLA-B*40:01 (human); assay: killing
T8 peptide: PEERTIEYL
Description: as §1, §2

[9] = biological target: T9, SF3B1 K700E epitope with alanine at position 4 peptide on HLA-B*40:01 (human); assay: killing
T9 peptide: QEVATISAL
Description: as §1, §2

[10] = biological target: T10, SF3B1 K700E epitope with alanine at position 1 peptide on HLA-B*40:01 (human); assay: killing
T10 peptide: AEVRTISAL
Description: as §1, §2

[11] = biological target: T11, SF3B1 K700E epitope with alanine at position 5 peptide on HLA-B*40:01 (human); assay: killing
T11 peptide: QEVRAISAL
Description: as §1, §2

[12] = biological target: T12, SF3B1 K700E epitope with alanine at position 6 peptide on HLA-B*40:01 (human); assay: killing
T12 peptide: QEVRTASAL
Description: as §1, §2

[13] = biological target: T13, SF3B1 wild-type peptide on HLA-B*40:01 (human); assay: killing
T13 peptide: QKVRTISAL
Description: as §1, §2

[14] = biological target: T14, SF3B1 K700E epitope with alanine at position 2 peptide on HLA-B*40:01 (human); assay: killing
T14 peptide: QAVRTISAL
Description: as §1, §2

[15] = biological target: T15, Gem-associated protein 5 (GEMIN5) peptide on HLA-B*40:01 (human); assay: killing
T15 peptide: IEPRTIFCL
Description: as §1, §2

[16] = biological target: T16, CBFB-MYH11 type A peptide on HLA-B*40:01 (human); assay: killing
T16 peptide: REEMEVHEL
Description: as §1, §2

[17] = biological target: T17, alkylglycerone-phosphate synthase (AGPS) peptide on HLA-B*40:01 (human); assay: killing
T17 peptide: DETRTIISL
Description: as §1, §2

[18] = biological target: T18, SF3B1 K700E peptide on HLA-B*40:01 (human); assay: peptide titration 51Cr-release assay; clone 24 against autologous LCL pulsed with varying peptide concentrations; T cell clone or line
T18 peptide: QEVRTISAL
Description: as §1, §2

B1: TCR24 (SF3B1^K700E/B*40:01-specific TCR from clone 24) (TCR, V domains shown)
Valpha: AQSVTQPDIHITVSEGASLELRCNYSYGATPYLFWYVQSPGQGLQLLLKYFSGDTLVQGIKGFEAEFKRSQSSFNLRKPSVHWSDAAEYFCAVAAKDSSYKLIFGSGTRLLVRP
Vbeta: SAVISQKPSRDICQRGTSLTIQCQVDSQVTMMFWYRQQPGQSLTLIATANQGSEATYESGFVIDKFPISRPNLTFSTLTVSNMSPEDSSIYLCSDRGQVVGETQYFGPGTRLLVL
Question: Does B1 bind [1]?
Answer: no recognition

Question: Does B1 bind [2]?
Answer: recognises

Question: Does B1 bind [3]?
Answer: recognises

Question: Does B1 bind [4]?
Answer: recognises

Question: Does B1 bind [5]?
Answer: no recognition

Question: Does B1 bind [6]?
Answer: recognises

Question: Does B1 bind [7]?
Answer: no recognition

Question: Does B1 bind [8]?
Answer: no recognition

Question: Does B1 bind [9]?
Answer: no recognition

Question: Does B1 bind [10]?
Answer: recognises

Question: Does B1 bind [11]?
Answer: no recognition

Question: Does B1 bind [12]?
Answer: no recognition

Question: Does B1 bind [13]?
Answer: no recognition

Question: Does B1 bind [14]?
Answer: no recognition

Question: Does B1 bind [15]?
Answer: no recognition

Question: Does B1 bind [16]?
Answer: no recognition

Question: Does B1 bind [17]?
Answer: no recognition

Question: And the EC50 of peptide [18]?
Answer: ~0.1 ng/mL
